According to patent publication US20170210813A1 (Regeneron, published 2017):

T1: Macaca fascicularis PDGFRb.mmh (Macaca fascicularis)
T1 construct: Soluble monomeric construct; also called mfPDGFRb.mmh
T1 chain: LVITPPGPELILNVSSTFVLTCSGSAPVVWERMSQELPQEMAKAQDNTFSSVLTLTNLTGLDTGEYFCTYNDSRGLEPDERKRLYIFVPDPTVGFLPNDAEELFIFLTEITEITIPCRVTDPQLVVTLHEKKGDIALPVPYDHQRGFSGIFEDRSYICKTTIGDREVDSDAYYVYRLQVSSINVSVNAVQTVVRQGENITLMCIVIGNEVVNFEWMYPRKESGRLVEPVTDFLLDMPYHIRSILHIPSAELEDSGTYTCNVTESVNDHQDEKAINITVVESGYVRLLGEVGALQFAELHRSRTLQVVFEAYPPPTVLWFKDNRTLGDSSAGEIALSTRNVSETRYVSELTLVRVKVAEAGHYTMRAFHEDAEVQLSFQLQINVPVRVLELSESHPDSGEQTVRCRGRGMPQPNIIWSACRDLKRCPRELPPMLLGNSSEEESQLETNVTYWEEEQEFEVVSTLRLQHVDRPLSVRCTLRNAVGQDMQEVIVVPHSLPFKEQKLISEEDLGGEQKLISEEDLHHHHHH

T2: human PDGFRb.mFc (human)
T2 construct: Soluble dimeric construct with mouse Fc; also called hPDGFRb.mFc; soluble human PDGFR-beta.mFc
T2 chain: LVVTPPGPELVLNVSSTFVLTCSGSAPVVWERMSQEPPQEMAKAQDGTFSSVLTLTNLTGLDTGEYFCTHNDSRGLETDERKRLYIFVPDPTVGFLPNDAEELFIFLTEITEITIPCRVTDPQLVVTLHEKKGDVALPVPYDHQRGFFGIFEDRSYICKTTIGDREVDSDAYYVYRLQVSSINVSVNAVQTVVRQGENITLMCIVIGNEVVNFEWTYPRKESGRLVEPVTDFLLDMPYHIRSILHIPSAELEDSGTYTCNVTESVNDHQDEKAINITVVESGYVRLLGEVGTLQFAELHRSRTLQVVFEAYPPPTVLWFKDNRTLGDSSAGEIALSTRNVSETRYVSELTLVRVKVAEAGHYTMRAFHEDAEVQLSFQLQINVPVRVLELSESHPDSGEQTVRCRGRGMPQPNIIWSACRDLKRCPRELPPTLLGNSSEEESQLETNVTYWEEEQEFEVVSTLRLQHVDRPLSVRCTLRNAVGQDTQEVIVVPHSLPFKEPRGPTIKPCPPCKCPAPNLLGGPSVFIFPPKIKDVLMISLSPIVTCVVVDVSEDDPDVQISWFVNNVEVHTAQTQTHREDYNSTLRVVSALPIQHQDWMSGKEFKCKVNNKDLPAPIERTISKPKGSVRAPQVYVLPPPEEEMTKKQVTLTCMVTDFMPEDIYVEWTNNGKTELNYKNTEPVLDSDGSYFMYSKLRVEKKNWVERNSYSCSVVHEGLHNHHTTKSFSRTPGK


Columns and labels:
hPDGFRb.mmh [1] = target: T3, hPDGFRb.mmh (human, UniProt P09619 33-531); experiment: blocking ELISA, biot-hPDGFRb.mmh to coated PDGF-BB
T3 construct: Soluble monomeric construct; also called soluble human PDGFR-beta.mmh
T3 sequence (P09619 other isoform, or with tags, fused parts or gaps): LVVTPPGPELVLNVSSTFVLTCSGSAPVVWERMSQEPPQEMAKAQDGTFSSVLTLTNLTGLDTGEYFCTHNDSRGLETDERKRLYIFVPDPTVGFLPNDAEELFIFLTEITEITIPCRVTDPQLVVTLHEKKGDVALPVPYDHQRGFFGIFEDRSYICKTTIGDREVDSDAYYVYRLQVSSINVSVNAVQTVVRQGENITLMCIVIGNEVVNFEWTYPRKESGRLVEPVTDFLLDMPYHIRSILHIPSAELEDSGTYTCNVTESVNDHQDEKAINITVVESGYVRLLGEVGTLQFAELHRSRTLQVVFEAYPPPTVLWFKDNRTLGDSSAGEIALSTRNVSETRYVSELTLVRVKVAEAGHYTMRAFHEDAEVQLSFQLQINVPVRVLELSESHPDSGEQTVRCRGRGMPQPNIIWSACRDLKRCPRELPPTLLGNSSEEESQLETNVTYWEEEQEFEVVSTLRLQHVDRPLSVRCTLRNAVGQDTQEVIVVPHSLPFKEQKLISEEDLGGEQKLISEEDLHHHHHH
Method: The equilibrated PDGFR-beta/antibody solutions were added to ligand-coated plates, allowed to incubate for 1 hr, and washed. Levels of bound biot-hPDGFR-beta.mmh were detected using HRP conjugated streptavidin. Data were analyzed using Prism software and IC₅₀ values were calculated as the amount of antibody required to achieve 50% reduction of hPDGFR-beta-mmh bound to ligand. Maximum blocking values were also calculated and reflect the ability of the antibody to block relative to baseline. The absorbance measured at the constant amount of 250 pM biot-hPDGFR-beta-mmh on the dose curve is defined as 0% blocking and the absorbance with no added PDGFR-beta is defined as 100%. The absorbance of the wells containing the highest antibody concentration determined the maximum blocking percent.

[2] = target: T1, Macaca fascicularis PDGFRb.mmh; experiment: SPR, mAb captured, 25 C
Method: (§1) Antibodies, expressed as either mouse Fc (prefix H1M; H2M) or human Fc (prefix H4H), were captured on their respective anti-Fc sensor surfaces (Mab capture format). […] Kinetic association (kₐ) and dissociation (kd) rate constants were determined by processing and fitting the data to a 1:1 binding model using Scrubber 2.0 curve fitting software.

hPDGFRb.mmh [3] = target: T3, hPDGFRb.mmh; experiment: SPR, mAb captured, 25 C
Method: as §1

human PDGFRb.mFc = target: T2, human PDGFRb.mFc; experiment: SPR, mAb captured, 25 C
Method: as §1

hPDGFRb.mmh [4] = target: T3, hPDGFRb.mmh; experiment: SPR, mAb captured, 37 C
Method: as §1

[5] = target: full length human PDGFR-beta on HEK293 cells (human, UniProt P09619 33-1106); experiment: cell-based or functional assay
full length human PDGFR-beta on HEK293 cells, sequence (P09619 33-1106 limits assumed): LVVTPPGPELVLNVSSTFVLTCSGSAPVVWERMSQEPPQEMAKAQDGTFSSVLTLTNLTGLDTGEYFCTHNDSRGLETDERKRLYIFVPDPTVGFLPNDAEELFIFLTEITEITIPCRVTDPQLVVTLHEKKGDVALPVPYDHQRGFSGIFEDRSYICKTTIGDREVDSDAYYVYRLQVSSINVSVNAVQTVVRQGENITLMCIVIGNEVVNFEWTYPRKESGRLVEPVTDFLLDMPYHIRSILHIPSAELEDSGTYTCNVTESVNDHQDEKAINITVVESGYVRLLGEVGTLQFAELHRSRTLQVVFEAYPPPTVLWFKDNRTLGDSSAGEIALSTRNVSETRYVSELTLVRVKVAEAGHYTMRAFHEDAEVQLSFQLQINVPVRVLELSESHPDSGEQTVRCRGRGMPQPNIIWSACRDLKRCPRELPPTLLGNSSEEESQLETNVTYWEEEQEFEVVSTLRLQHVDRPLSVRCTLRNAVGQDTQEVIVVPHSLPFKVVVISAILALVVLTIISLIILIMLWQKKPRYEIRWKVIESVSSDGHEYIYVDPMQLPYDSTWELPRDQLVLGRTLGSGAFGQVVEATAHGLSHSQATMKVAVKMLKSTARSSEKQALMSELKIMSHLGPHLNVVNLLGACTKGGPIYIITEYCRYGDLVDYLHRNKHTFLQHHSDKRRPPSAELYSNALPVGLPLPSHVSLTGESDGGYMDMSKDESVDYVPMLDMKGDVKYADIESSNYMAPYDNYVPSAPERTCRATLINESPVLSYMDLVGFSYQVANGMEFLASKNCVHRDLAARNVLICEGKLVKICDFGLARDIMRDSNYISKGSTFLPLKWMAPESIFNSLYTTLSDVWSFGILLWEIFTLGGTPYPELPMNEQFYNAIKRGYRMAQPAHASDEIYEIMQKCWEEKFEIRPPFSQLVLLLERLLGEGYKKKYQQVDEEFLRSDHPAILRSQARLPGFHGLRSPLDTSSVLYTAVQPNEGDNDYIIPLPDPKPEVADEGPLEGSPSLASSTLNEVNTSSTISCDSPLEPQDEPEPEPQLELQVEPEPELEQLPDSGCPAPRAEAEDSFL

% Maximum Blocking (hPDGFRb.mmh [1]) [%]	IC50 (hPDGFRb.mmh [1]) [nM]	Kd [2] [nM]	koff [2] [s⁻¹]	kon [2] [M⁻¹ s⁻¹]	t1/2 [2] [min]	Kd (hPDGFRb.mmh [3]) [nM]	koff (hPDGFRb.mmh [3]) [s⁻¹]	kon (hPDGFRb.mmh [3]) [M⁻¹ s⁻¹]	t1/2 (hPDGFRb.mmh [3]) [min]	Kd (human PDGFRb.mFc) [nM]	koff (human PDGFRb.mFc) [s⁻¹]	kon (human PDGFRb.mFc) [M⁻¹ s⁻¹]	t1/2 (human PDGFRb.mFc) [min]	Kd (hPDGFRb.mmh [4]) [nM]	koff (hPDGFRb.mmh [4]) [s⁻¹]	kon (hPDGFRb.mmh [4]) [M⁻¹ s⁻¹]	t1/2 (hPDGFRb.mmh [4]) [min]	IC50, blocking PDGF-BB (250 pM) activation, SRE-luciferase [5] [M]	IC50, blocking PDGF-DD (400 pM) activation, SRE-luciferase [5] [M]	Binder
88	0.077	2.7	0.000371	137000	31	1.99	0.000331	167000	35	0.108	0.000107	996000	108	1.71	0.00079	463000	15	3.1e-10	2.1e-10	H1M3374N (antibody, V domains shown, mouse Fc format; also called H2M3374N) VH: QLQLQESGPGLVKPSETLSLTCTVSGGSITSSSYYWGWIRQPPGKGLEWIGSIYYRGSTNYNPSLKSRVTISVDSSKNQFYLKVSSVTAVDTAVYYCARQNGAARPSWFDPWGQGTLVTVSS VL: EIVLTQSPDTISLSPGERATLSCRASQSISSIYLAWYQQKPGQAPRLLIYGASSRVTGIPDRFSVSGSGTDFTLTISRLEPEDFAVYYCQHYGISPFTFGPGTKVDIR
80	0.9	18.3	0.00238	130000	5	12.4	0.00235	189000	5	0.507	0.00024	473000	48	29.8	0.0122	410000	0.9	7e-11	9.2e-11	H2M3373N (antibody, V domains shown, mouse Fc (H2M prefix; isotype not spelled out)) VH: EVQLRDSGGGLVQPGGSLRLSCVASGFTFSSYWMSWVRQAPGKGLEWVVNINRDGSEKYYVDSVKGRFIISRDNTKNSLYLQMESLRAEDTAVYYCARDPPYHLYGMDVWGQGTTVTVSS VL: DIQMTQSPSSLSASVGDRVTITCRTSQGIRVDLAWYQQKPGKAPERLIYAASSLQSGVPSRFSGGGSGTEFTLTVSSLQPEDFATYYCLQHHNFPYTFGQGTKLEIK
